We go through one substance from paper PMC3694950.

The target of the experiment is mitochondrial large-conductance Ca2+-regulated potassium channel (mitoBKCa channel) (human (endogenous in U-87 MG)) (UniProt Q12791).
Chain of UniProt Q12791 (Q12791 whole entry, looked up): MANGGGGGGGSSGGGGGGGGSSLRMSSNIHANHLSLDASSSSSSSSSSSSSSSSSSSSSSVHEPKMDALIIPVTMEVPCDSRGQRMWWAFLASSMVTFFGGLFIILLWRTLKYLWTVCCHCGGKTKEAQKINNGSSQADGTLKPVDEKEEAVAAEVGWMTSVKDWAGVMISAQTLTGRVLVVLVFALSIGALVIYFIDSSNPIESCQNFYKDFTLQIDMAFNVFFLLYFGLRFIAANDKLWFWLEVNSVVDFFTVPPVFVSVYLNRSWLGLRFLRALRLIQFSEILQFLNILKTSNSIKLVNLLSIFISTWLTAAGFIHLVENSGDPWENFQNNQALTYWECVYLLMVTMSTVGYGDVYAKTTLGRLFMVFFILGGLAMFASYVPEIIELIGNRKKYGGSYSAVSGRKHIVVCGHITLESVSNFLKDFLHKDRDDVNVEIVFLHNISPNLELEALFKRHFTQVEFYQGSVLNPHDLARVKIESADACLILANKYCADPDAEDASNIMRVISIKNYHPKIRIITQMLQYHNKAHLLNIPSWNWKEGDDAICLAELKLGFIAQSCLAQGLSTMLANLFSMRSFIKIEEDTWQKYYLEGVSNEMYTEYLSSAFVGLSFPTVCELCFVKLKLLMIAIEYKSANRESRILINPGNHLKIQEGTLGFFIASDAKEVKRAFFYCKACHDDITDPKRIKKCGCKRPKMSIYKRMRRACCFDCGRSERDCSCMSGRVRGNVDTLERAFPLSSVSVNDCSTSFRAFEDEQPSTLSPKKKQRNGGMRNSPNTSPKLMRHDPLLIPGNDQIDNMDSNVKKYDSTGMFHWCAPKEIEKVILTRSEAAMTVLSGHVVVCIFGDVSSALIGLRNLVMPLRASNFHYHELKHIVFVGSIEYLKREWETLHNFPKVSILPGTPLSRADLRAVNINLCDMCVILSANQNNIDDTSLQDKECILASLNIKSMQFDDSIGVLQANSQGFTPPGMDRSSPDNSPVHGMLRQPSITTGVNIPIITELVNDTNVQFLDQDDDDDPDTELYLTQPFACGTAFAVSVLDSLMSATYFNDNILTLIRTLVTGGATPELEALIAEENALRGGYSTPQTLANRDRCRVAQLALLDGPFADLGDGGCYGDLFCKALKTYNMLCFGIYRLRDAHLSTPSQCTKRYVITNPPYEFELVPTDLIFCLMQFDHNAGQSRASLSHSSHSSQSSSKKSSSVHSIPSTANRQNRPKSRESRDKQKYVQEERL

As to “iberiotoxin (from UniProt P24663 1-37) (peptide)”, the open probability (Po) of the mitoBKCa channel in patch-clamped mitoplasts (inside-out) after 100 nM iberiotoxin; control Po 0.95 came to 0.15 Po.
